Reference: patent US20130323819A1 (HERA PHARMACEUTICALS, published 2013)

Key:
[1] = target: T1, SAI/II antigen (SAI/II adhesion of S. mutans) (Streptococcus mutans, UniProt P23504 39-1532); experiment: ELISA, SAI/II coated, culture supernatant; integrated strain against plasmid strain (same polypeptide, different amount)
T1 construct: Coated on ELISA plates at 1 ug/ml in PBS
T1 sequence (looked up): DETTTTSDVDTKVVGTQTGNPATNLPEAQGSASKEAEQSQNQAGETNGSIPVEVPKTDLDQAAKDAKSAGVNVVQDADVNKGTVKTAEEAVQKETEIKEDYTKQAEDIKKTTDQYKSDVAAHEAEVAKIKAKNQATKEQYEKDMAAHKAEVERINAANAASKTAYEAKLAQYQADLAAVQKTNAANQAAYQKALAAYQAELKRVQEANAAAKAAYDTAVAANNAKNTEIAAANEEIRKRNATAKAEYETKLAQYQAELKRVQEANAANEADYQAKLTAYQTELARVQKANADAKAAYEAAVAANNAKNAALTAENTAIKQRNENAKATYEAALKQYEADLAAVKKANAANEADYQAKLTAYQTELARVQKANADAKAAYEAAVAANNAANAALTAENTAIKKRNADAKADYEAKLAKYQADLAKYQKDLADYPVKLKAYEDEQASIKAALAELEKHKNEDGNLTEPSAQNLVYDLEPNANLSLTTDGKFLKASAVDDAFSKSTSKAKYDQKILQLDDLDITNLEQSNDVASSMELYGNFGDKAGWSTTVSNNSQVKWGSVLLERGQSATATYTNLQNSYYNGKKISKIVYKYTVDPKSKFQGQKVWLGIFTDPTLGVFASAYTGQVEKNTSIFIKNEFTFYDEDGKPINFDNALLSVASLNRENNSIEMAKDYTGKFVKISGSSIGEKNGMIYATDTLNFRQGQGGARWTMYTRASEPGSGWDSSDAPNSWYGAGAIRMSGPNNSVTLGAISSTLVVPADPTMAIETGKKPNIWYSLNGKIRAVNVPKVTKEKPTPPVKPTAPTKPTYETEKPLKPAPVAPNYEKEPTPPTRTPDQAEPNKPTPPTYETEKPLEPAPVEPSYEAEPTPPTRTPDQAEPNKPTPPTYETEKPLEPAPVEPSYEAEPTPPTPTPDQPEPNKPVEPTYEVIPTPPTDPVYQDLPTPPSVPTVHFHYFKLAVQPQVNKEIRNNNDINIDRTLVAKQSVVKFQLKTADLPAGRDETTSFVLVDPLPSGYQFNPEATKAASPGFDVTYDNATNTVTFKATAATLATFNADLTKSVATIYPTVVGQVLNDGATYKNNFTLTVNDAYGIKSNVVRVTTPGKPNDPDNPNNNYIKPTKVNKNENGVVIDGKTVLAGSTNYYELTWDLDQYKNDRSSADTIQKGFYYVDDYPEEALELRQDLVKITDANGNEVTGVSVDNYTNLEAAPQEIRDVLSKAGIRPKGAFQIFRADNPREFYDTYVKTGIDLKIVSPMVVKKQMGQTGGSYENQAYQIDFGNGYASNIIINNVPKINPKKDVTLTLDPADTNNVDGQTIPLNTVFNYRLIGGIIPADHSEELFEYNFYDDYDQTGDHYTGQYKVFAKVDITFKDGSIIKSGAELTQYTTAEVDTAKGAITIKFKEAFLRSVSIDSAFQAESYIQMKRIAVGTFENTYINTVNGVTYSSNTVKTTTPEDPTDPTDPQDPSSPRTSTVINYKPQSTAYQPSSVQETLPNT

[2] = target: T1, SAI/II antigen (SAI/II adhesion of S. …); experiment: ELISA, SAI/II coated, whole bacterial cells; integrated strain against plasmid strain (same polypeptide, different amount)

B1: secreted scFv anti-SAI/II (E-tagged) produced by L. paracasei pAF100 (plasmid) or L. paracasei EM182 (chromosomally integrated) (scFv)
scFv: AIVEGSAAQPAMDAQVKLQESGPDLVKPGASVKISCKASGYTFTDYNIHWVKQSRGKSLEWIGYIYPYNGNTYYNQKFKNKATLTVDNSSTSAYMELRSLTPEDSAVYYCATYFDYWGQGTTVTVSSGGGGSGGGGSGGGGSDIELTQSPAIMSASPGEKVTITCSASSSVSYMHWFQQKPGTSPKLWLYSTSNLASGVPARFSGSGSGTSYSLTISRMEAEDAATYYCHQRTSYPYTFGGGTKLEIKRAAAAGAPVPYPDPLEPRAA
notes: Same polypeptide from the plasmid strain and the integrated strain (pEM182 = pEM76 with the expression cassette of pAF100); tested as culture supernatant; also called pEM182
fold reduction in binding activity against the corresponding plasmid system (L. paracasei pAF100) [1]: ≥ 8 fold

B2: surface anchored scFv anti-SAI/II (E-tagged) fused to the prtP anchor region, displayed on L. paracasei pAF900 (plasmid) or L. paracasei EM181 (chromosomally … (scFv)
scFv: AIVEGSAAQPAMDAQVKLQESGPDLVKPGASVKISCKASGYTFTDYNIHWVKQSRGKSLEWIGYIYPYNGNTYYNQKFKNKATLTVDNSSTSAYMELRSLTPEDSAVYYCATYFDYWGQGTTVTVSSGGGGSGGGGSGGGGSDIELTQSPAIMSASPGEKVTITCSASSSVSYMHWFQQKPGTSPKLWLYSTSNLASGVPARFSGSGSGTSYSLTISRMEAEDAATYYCHQRTSYPYTFGGGTKLEIKRAAAAGAPVPYPDPLEPRAAASKKTSLLNQLQSVKAALGTDLGNQTDPSTGKTFMAALDDLVAQAQAGTQTADQLQASLAKVLDAVLAKLAEGIKAATPAEVGNAKDAATGKTWYADIADTLTSGQASADASDKLAHLQALQSLKTKVAAAVEAAKTAGKGDDTSGTSDKGGGQGTPAPAPGDTGKNKGDEGSQPSSGGNIPTKPATTTSTSTDDTTDRNGQHTSGKGALPKTAETTERPAFGFLGVIVVSLMGVLGLKRKQREE
modifications: On the cells the chain is covalently linked to the cell wall through the prtP anchor (LPXTG-type motif, here LPKTA at residues 478-482).
notes: Same polypeptide from the plasmid strain and the integrated strain (pEM181 = pEM76 with the expression cassette of pAF900); tested as whole bacterial cells; (precursor, before any processing on anchoring to the cell wall); also called pEM181
fold lower binding level than L. paracasei pAF900 [2]: < 16 fold

B3: secreted and attached scFv anti-SAI/II (E-tagged) fused to the middle region and C-terminal domain of APF, produced by L. paracasei pAF400 (plasmid) or L. … (scFv)
scFv: AIVEGSAAQPAMDAQVKLQESGPDLVKPGASVKISCKASGYTFTDYNIHWVKQSRGKSLEWIGYIYPYNGNTYYNQKFKNKATLTVDNSSTSAYMELRSLTPEDSAVYYCATYFDYWGQGTTVTVSSGGGGSGGGGSGGGGSDIELTQSPAIMSASPGEKVTITCSASSSVSYMHWFQQKPGTSPKLWLYSTSNLASGVPARFSGSGSGTSYSLTISRMEAEDAATYYCHQRTSYPYTFGGGTKLEIKRAAAAGAPVPYPDPLEPRAAASEELYHTQAAVTQAPVQHQTQTENTNSAATTTAANNTNTQTTTSTVSGSEASAKEWIAGRESGGSYGASNGQYVGKYQLSASYLNGDYSAANQERVADNYVKGRYGSWTAAKAFWQANGWY
notes: Same polypeptide from the plasmid strain and the integrated strain (pEM171 = pEM76 with the expression cassette of pAF400); tested as culture supernatant and as whole cells (attached form); also called pEM171
fold reduction in binding activity against the corresponding plasmid system (L. paracasei pAF400) [1]: 4 fold
